Our source for the protein production values is a protein production outcome set (Wang et al. 2014).

The series can be described thus: label from the status in PepcDB records.
“MDPHVSHSAHLFSLRIAHALNEACVKDRYSFKRFGQDLLAGLTVGIIAIPLAMALAIASGVPPQYGLYTAIVGGFIIAMTGGSRYSVSGPTAAFVVLLYPIAQQFGLAGLLIATVMSGMMLVAMAMLRLGRLILYIPESVTLGFTAGIGVVIATLQLKDFFGLQIEHMPEQYFAKLMALGQALPSLHLPSLFIAAATLATMLLWPRLKIPVPAHLPAIALGSILALILNAMGAEIETIGTRFHYQLTDGGIGSGIPAVLPHFEWPWLQTGPNGQAFEFNLAAFQALLPAAFAIAMLGAIESLLCAVVLDGMTGKRHSANSELLGQGIGNIIAPFFGGIPATAAIARSAANVKAGAQSPIASMIHALVVLIGLVALAGILAYLPMSAMAALLLVVAWNMSEAPKAVHLLKTAPTSDILVFLSCFSLTVIFDMVIAISVGIILAALLFMKEIAEMTKLYDISSNKRYVDQSLPADWAVLKINGPLFFAAADRIFAEIASLTQDKQVIVLYLDGVSILDAGGLAALSKLIEKCKLNQTKLLITDLQFQPIRTLAKAKIQPVEGVLKFYPTLREALTEAPSPELEATPEATD”: the protein production result is reported as “failed”.
Under “MDPKSCENSSDVKGQTSDSVSKKVLIEEEEDVKKPQQGKENDSRMAKDVVSCSSNISAHVVHEEVADNVTAVSCNEAESDISKAKAKEFHTIDLSGVGERICRICHFGSDQSPEASGDDKSVSPELIEIGCKCKNELGLAHFHCAEAWFKLRGNR” stands “failed”; under “MDPSQFNPTYIPGSPQMLTEENSRDDSGASQISSETLIKNLSNLTINASSESVSPLSEALLRRESVGAAVLREIEDEWLYSRRGVRTLLSVQREKMARLRYMLLGGVRTHERRPTNKEPKGVKKESRPFKCPCSFCVSNGWDPSENARIGNQDTKPLQP”, “failed”.
The same measure for “MDPTVSLQLSVDRSSPVPLYFQLSQQLEAAIEHGTLTPGSLLGNEIELAARLGLSRPTVRQAIQSLVDKGLLVRRRGVGTQVVHSQVKRPLELSSLYDDLEAAGQRPATQVLLNTLVPASAEVAAALGVAEGSDVHQVERLRLAHGEPMAYLCNYLPTGLLGLDSEQLEATGLYRLMRAAGITLHSARQSVGARAATAVEGERLGEPEGAPLLTMQRTTFDDTGRAVEFGTHTYRASRYSFEFQLLVRP”: “failed”; for “MDQFEYIITLEFGNQNQVESAYQIFKSIPKKLKAKSIGEESIKSNNQDWQDWRVCDLEIDMITDFKNQTSKEEESDLITSQYLGHGIIRLFKLSNANNTLNEKEILTIPGDDTMICILFVPTYFTVHDLLHFYIGDDIVNKQVSNFRILRNQQKGMGFNFTVLIKFRNALDAKNFKEEFNGKSFSRMDPETCHVISVKEIVFQKKLFQRPAANEDFPYLLTDPFTVKKKKELVKVELPTCPVCLERMDSETTGLVTIPCQHTFHCQCLNKWKNSRCPVCRHSSLRLSRESLLKQAGDSAHCATCGSTDNLWICLICGNVGCGRYNSKHAIKHYEETLHCFAMDIRTQRVWDYAGDNYVHRLVQNEVDGKLVEVGGSGDDDNNDIGNSDELQNVVYGNRSKNGEKSNSNKKDGELAANFLRHREYHLEYVQVLISQLESQREYYELKLQEKDQTASDSSNVESLKKSMEDLKLQFQVTQKEWQKREMAQKSKLEEDMLVIEGLQANLDHLSKKQEQLERENKALEESKQDLEEQVKDLMFYLDSQEKFKDADESVKEGTILIQQPHGAAQASKSKKKRNKNKKAGK”: “failed”.
Under “MDQKEAPSFTEASVHDPSVIKVEDTFYVFGSHLAAAKTEDLRNWTQIATHVHEGNPLIPNVFVELAEAFEWANSNTLWAADVIQLEDGRFYMYYNACQGDAPRSALGVAVADDIEGPYENLGVFLKSGMWGEESPDGTIYDANVHPNAIDPHVFFDEEGKLWMVYGSYSGGIFILEMDPDTGFPLPGQGYGTHLMGGNHSRIEAPYIHYDKETEYYYLYVTFGGLDSTGGYNMRVARSKQPDGPYVDGEGHLMSEVRGAPGTLFDDASIEPYGVKQMGNFLFKRELGERGTGYVSPGHNSVYYDDEVDKIFLFFHTRFPERGEAHEIRVHQMFMNRKGWPVIAPYRYTGESLEKVKAKEVIGDYQWINHGKEISAEIKESVTVRLEKNHKVLGDVTGKWKKVGDYHVELQIDGETYYGVFLRQWDPVAEREVMTFTALSEEGIAIWGSQLEEKTDNEIVDAVYDDLTLEGTIISDVELPTRGMRQTTIAWSSSHEEVLSSSGKVNRPEIGEDDVVVSLTATISKGSAERIKTFELVVPGQTEGGLVAHYPLNGTLENAVDDARFGSGTVTGNRIDNPGGTIAFEQGIDGEAAVFDGTTGIRLPNGLISRNTYTVSFWLNPEQLTEFTTAFFAARSEHHWLSFVPRGHSGMNHDTMLWAGSAQWYDAGTGVKLPVGEWSHVAFSVDNGEIVIYLNGEERFRGENFPNLFTTPNAYFALGVNHWDAPFQGMIDELRIYDGVALTREEIVHLAKQKLEHHHHHH” stands “not failed”.
In the case of “MDQLFRYPLHQIPLVAMAIIIALSVHEFAHAYVAYKFGDDTAKRQGRLTLSPMAHLDPIGMIAVLILGFGWARRVPVNPYNFKRPRLAGILVSIAGPISNLILSAIGLIIWYSLLTFGVLDSIPFAVADTLAQFFQIFIMLNIVLLVFNLLPIPPLDGYRVVEDLAPTNIRAKMTQYEKYGAIALLILVITPLSNYTIQPIFSVVIPYVFAFLNSIIAPIFGLL”, the protein production entry is on record as “failed”.
In the case of “MDQLNKITPTGTEKVSESSCNKLEETCTKCGKNIYKKVTILGIDRIVKTMCECESKAWHEKRQHEEMLKKQNRLNELITNSLMDEKFRESNFENWDFNKGSRSMYNLGRRYADNFKECKQQGLGLLIYGSAGNGKTYLASAIANELLKQYIPVVCVSINGLLSRIQKTYNSWGKEAESDIIRSFINADLLIIDDLGTEKSSEWSRSMIYNIVDSRYRSKLPLIITSNLEINPSKRHGVLADQYHERTESRIFEMCTPVENTSKSIRIEEAKKKTELLRKILY”, the protein production entry is on record as “failed”.
Regarding “MDQTAEEKMVRERIRKKVNEVSSASQSLLSPVQDHINFTLQKAYFKCAYECFDRTRTHAEISRCAESCSVPITNAQNYFDNEMSVFQERLNRSLVVCQDKFEVAKQQKTRSEAVNDLEHCVNQTVDEAVKTLPNLVSRMKKALSITD”, the protein production result was “failed”.
Under “MDRGGMKHREGGPGPRTEMSGYSVYEEENERLTENLKMKTSALKSLSIDIGNEVKYHNKMLGEMDSDFDSTGGLLGSTMGRLKILSRGSQAKLLCYMMLFAFFVFFVIYWFIKLR” stands “failed”.
On to “MDRIQEMTLFAALAGQTSFTGVARHVGLSTATVTRAVASLESRLGILLVVRTTRNMRLTKAGQRFAEDCRRLLADLSEAENAAAGVHALPAGTLTVTAPQMFGALHVTPVLTRFLSEYPAVDIRAILVDRVVSMLDEGVDVAVRIGALRDSSLTAIRVGSVRRMVCASPVYLTQHGTPRHPDDLQQHATISTSAPERPPHWAFRVDDQDYSVNVASRLSLTSFQASINAALQHWGLTQVPHYQIREHLHNGRLVCVLEDFEIAPEPVHVVYSEGRRGSSRVRSFVDFCVSALREDLQFEAAG”, for which the protein production entry was “failed”.
“MDRMWSPWRSAYVSEANDREPTDDESIFTALLREERDEENLILWRGEHVFVIMNRHPYNSGHLLILPYREVTQYDALNAPEQQALTAALDRCMGWLREAVSPDGFNVGMNLGRAAGAGIPDHLHAHVVPRWDGDTNFMATTANTKVLPEDLQTTYGKLRAAMAPDARDTTKPAAQKPSE”: the protein production entry is recorded as “failed”.
Turning to “MDRMYEQNQMPHNNEAEQSVLGSIIIDPELINTTQEVLLPESFYRGAHQHIFRAMMHLNEDNKEIDVVTLMDQLSTEGTLNEAGGPQYLAELSTNVPTTRNVQYYTDIVSKHALKRRLIQTADSIANDGYNDELELDAILSDAERRILELSSSRESDGFKDIRDVLGQVYETAEELDQNSGQTPGIPTGYRDLDQMTAGFNRNDLIILAARPSVGKTAFALNIAQKVATHEDMYTVGIFSLEMGADQLATRMICSSGNVDSNRLRTGTMTEEDWSRFTIAVGKLSRTKIFIDDTPGIRINDLRSKCRRLKQEHGLDMIVIDYLQLIQGSGSRASDNRQQEVSEISRTLKALARELECPVIALSQLSRGVEQRQDKRPMMSDIRESGSIEQDADIVAFLYRDDYYNRGGDEDDDDDGGFEPQTNDENGEIEIIIAKQRNGPTGTVKLHFMKQYNKFTDIDYAHADMM”, the protein production entry was “failed”.
Under “MDRNLKIFITVMLILSVISQFLPFKRDAVSLINVITNLAAFMGLSYACIYSRKVYPHLYLTLLLLSAAQFFSFLGDFTWFILESILSLNPFPSVADLFYLLYYPIFAAGIFTIPIKRYSDLRSIIDLLIILVASASAAWVFLLEPTVFAGGDFTEVLVSTLYVLGDLLIVFMIMDLIINKLGHLRSRTLHVFLASIIILLAADISFTYQNLTGIYAGGTPQDLLWAFSYILLLIAVNEFFKEDWSKPLYVEKKVTAVTYTPYIFIILFYLLTAYSVIKGGAEKSTVLLVSLGFIIVLFILRQHLSMKENMALLNDVENERRRAENYLEVAGSLIMVLDEKTRVKLINRRGLEILECDAGEVAGKNWFMTFVPPEDRGWREKLYTEKISSGSKGYHLTGEILTCKGDRKTVTWHVVFLREDGEFRGSIISGDDITELQRATRALEMSEMRYREIFELAPSPIISVGDDLIIRDCNRRAESVLGYQRGELIGRNLMDLIHPEDAGEDFEGERRLLRSNGDVIYADIGVARVGDERIIIIEDQTEIRRSLQEKELLLREIHHRVKNNLQIISSLLSIQERQLESEELSDVLRESRERIRSIALVHEHLYRSTNLRTIRIRNYLNNILSKLSQGQTHGKDVRISSSIEDLEFNLETSLPIGLMVNELVSNSLKHSGADNITVELRSLNGTLELTVKDDGIGLESPEVLEKSGSMGWYLIRALTDQLDGELKIETEDGLSVSLRFRELGYRERY” stands “failed”; under “MDRPERSEVLSPEDFLQAMPIGKTASILDLGAGTGFLTIPAAKLVDNTVFALDLDAKMLELIESKAKEAGLANVETLEASMDDIPLEANSVDVVLASLVLHEADSLADVLREVSRVVKTGGYFASLEFDTKGTDLKGPPMEIQISAEKLKEELAGFGFEVVKNWQLDEGMYVSIAVKKLEHHHHHH”, “not failed”.
As to “MDRRHEIYEWFRINRFKVDMTATCLLILLFGPVYLVADRPWLFLLSCSLLLPLAWRRTRPAVAAGVVILVCLVQWAVAAEPVAGQIAVPLVIYATAAYGPAWASRTVLLAGLLGGVMLTTRLFSTTAESGILGLTIGALYTVLIWMLVLVSWTLGDLTRVRRLQLQALEDRTRRLEVEQMQERKLAAADERSHIAREMHDIVAHSLSVIITQADGARYAAAAKPELATEALATIAATGRDSLGEMRRLLGVLRSDDDSPTRPQPRLSDLDELLLGFRAATLQVTFEQSGAPRRALPAGAELTAYRIIQEALTNVMKHAGPRATAAVTLAWQARGLQVDVVDDGRGAAADPPTAGGGNGLRGMGERVSLYDGSLTAGPEQGGGFRVSAFIPYSEA”, the protein production entry is reported as “failed”.
The same measure for “MDRRRFLVGLLGLGLARGQGLRVEEVVGGLEVPWALAFLPDGGMLIAERPGRIRLFREGRLSTYAELSVYHRGESGLLGLALHPRFPQEPYVYAYRTVAEGGLRNQVVRLRHLGERGVLDRVVLDGIPARPHGLHSGGRIAFGPDGMLYVTTGEVYERELAQDLASLGGKILRLTPEGEPAPGNPFLGRRGARPEVYSLGHRNPQGLAWHPKTGELFSSEHGPSGEQGYGHDEVNLIVPGGNYGWPRVVGRGNDPRYRDPLYFWPQGFPPGNLAFFRGDLYVAGLRGQALLRLVLEGERGRWRVLRVETALSGFGRLREVQVGPDGALYVTTSNRDGRGQVRPGDDRVLRLL”: “not failed”.
